The target in assay [1] is ERK1 (p42) active (phospho), human, Active Motif 31 152 (human) (UniProt P27361). Nature of the assay: RPA, competition: +free H3 peptide 10 nM.
Assay [2] concerns the target ERK1 (p44) active (GST tagged), human, Invitrogen PV 3311 (human) (UniProt P27361). The assay can be described thus: RPA, competition: +free H3 peptide 10 nM.
Assay [3] has as its target ERK1 (p44) inactive (GST tagged), human, Invitrogen PV 3312 (human) (UniProt P27361). Nature of the assay: RPA, competition: +free H3 peptide 10 nM.
Assay [4] has as its target ERK1 (p44), human, Cell Signaling Technology 7416 (human) (UniProt P27361). Nature of the assay: RPA, competition: +free H3 peptide 10 nM.
Assay [5] deals with ERK2 (p42), human, Biosource PHO 0104 (human) (UniProt P28482). The assay can be described thus: RPA, competition: +free H3 peptide 10 nM.
UniProt P28482, sequence (P28482 2-360 limits assumed): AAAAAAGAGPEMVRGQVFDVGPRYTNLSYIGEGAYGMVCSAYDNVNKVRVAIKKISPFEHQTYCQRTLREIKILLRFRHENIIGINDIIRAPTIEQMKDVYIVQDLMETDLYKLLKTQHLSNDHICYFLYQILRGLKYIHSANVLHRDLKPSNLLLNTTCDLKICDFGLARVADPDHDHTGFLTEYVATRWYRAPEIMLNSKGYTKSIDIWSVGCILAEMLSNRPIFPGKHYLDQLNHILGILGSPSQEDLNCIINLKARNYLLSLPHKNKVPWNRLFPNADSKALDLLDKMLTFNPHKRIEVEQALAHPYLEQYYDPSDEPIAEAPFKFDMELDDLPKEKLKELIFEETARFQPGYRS
The target of assay [6] is Erk1-BSA 2.7x peptide-protein conjugate (human; bovine). The assay can be described thus: RPA, competition: +free H3 peptide 10 nM.
Erk1-BSA 2.7x peptide-protein conjugate (human; bovine), sequence (peptide, as listed by the source limits assumed, chain 1 of 2): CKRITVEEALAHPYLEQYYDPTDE
Erk1-BSA 2.7x peptide-protein conjugate (human; bovine), sequence (P02769 25-607 limits assumed, chain 2 of 2): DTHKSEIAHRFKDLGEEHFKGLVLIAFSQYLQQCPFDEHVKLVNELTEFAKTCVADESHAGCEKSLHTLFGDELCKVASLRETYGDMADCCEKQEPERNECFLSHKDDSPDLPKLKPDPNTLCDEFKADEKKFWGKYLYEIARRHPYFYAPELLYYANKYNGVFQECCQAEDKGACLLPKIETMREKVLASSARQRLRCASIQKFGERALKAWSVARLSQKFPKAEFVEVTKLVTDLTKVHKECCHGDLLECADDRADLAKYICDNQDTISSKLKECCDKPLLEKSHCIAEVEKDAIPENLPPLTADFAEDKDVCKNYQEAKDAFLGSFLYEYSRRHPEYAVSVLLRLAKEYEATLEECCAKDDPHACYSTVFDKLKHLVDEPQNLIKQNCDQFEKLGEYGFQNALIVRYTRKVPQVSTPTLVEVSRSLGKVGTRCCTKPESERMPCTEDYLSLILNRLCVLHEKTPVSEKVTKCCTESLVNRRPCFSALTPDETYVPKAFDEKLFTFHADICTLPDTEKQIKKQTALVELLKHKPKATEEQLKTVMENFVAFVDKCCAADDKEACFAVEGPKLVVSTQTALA
For assay [7], the target named is Histone H3 recombinant protein, calf, Roche 11 034 758 001 (calf) (UniProt P68432). Nature of the assay: RPA, competition: +free H3 peptide 10 nM.
Assay [8] has as its target Histone H3 recombinant protein, human, Upstate 14-494 (human) (UniProt P68431). The assay can be described thus: RPA, competition: +free H3 peptide 10 nM.
Assay [9] concerns the target Histone H3-BSA 2.7x peptide-protein conjugate (bovine). The assay can be described thus: RPA, competition: +free H3 peptide 10 nM.
For assay [10], the target named is pErk1/2-BSA 2.7x peptide-protein conjugate (human; bovine). Nature of the assay: RPA, competition: +free H3 peptide 10 nM.
pErk1/2-BSA 2.7x peptide-protein conjugate (human; bovine), sequence (P02769 25-607 limits assumed): as the sequence (P02769 25-607 limits assumed, chain 2 of 2) above
Assay [11] addresses pRb recombinant protein, human, Active Motif 31 128 (human) (UniProt P06400). Nature of the assay: RPA, competition: +free H3 peptide 10 nM.
UniProt P06400, sequence (P06400 whole entry): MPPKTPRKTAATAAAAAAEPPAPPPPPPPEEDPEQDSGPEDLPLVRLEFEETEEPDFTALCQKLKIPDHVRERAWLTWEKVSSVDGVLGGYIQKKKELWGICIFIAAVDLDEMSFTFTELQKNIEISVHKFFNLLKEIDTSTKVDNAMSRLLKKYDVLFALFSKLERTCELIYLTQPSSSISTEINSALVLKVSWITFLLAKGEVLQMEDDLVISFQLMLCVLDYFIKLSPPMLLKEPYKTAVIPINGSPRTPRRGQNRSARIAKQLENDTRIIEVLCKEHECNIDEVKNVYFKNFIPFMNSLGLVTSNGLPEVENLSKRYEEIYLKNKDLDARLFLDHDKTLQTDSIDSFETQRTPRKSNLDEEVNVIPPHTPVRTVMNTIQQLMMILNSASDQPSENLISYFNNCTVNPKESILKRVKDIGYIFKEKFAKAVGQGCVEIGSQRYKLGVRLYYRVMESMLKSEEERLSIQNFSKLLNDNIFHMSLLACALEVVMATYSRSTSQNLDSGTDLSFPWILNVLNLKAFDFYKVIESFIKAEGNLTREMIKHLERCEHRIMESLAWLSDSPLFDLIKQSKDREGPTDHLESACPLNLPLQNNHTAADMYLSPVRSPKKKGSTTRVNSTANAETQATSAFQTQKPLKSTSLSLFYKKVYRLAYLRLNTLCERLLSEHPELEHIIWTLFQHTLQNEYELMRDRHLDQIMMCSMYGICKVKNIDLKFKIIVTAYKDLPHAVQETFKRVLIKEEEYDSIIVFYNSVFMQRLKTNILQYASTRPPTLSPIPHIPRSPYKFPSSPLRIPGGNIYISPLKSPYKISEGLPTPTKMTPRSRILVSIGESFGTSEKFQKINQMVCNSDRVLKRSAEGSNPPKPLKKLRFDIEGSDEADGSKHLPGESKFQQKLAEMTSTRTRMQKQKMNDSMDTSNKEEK
Assay [12] has as its target pRb-BSA 1x peptide-protein conjugate (bovine). Nature of the assay: RPA, competition: +free H3 peptide 10 nM.
The target in assay [13] is ERK1 (p42) active (phospho), human, Active Motif 31 152 (human) (UniProt P27361). The assay can be described thus: RPA standard curves.
The target in assay [14] is ERK1 (p44) active (GST tagged), human, Invitrogen PV 3311 (human) (UniProt P27361). The assay can be described thus: RPA standard curves.
Assay [15] has as its target ERK1 (p44) inactive (GST tagged), human, Invitrogen PV 3312 (human) (UniProt P27361). Nature of the assay: RPA standard curves.
Assay [16] addresses ERK1 (p44), human, Cell Signaling Technology 7416 (human) (UniProt P27361). The assay can be described thus: RPA standard curves.
Assay [17] has as its target ERK1 (p42) active (phospho), human, Active Motif 31 152 (human) (UniProt P27361). Nature of the assay: RPA, competition: +free pErk1/2 peptide 10 nM.
Assay [18] deals with ERK1 (p44) active (GST tagged), human, Invitrogen PV 3311 (human) (UniProt P27361). Nature of the assay: RPA, competition: +free pErk1/2 peptide 10 nM.
For assay [19], the target named is ERK1 (p44) inactive (GST tagged), human, Invitrogen PV 3312 (human) (UniProt P27361). The assay can be described thus: RPA, competition: +free pErk1/2 peptide 10 nM.
The target in assay [20] is ERK1 (p44), human, Cell Signaling Technology 7416 (human) (UniProt P27361). The assay can be described thus: RPA, competition: +free pErk1/2 peptide 10 nM.
Assay [21] concerns the target ERK2 (p42), human, Biosource PHO 0104 (human) (UniProt P28482). The assay can be described thus: RPA, competition: +free pErk1/2 peptide 10 nM.
Assay [22] addresses Erk1-BSA 2.7x peptide-protein conjugate (human; bovine). Nature of the assay: RPA, competition: +free pErk1/2 peptide 10 nM.
Assay [23] concerns the target Histone H3-BSA 2.7x peptide-protein conjugate (bovine). Nature of the assay: RPA, competition: +free pErk1/2 peptide 10 nM.
Assay [24] addresses pErk1/2-BSA 2.7x peptide-protein conjugate (human; bovine). The assay can be described thus: RPA, competition: +free pErk1/2 peptide 10 nM.
In assay [25] the target is pRb recombinant protein, human, Active Motif 31 128 (human) (UniProt P06400). Nature of the assay: RPA, competition: +free pErk1/2 peptide 10 nM.
In assay [26] the target is pRb-BSA 1x peptide-protein conjugate (bovine). The assay can be described thus: RPA, competition: +free pErk1/2 peptide 10 nM.
pRb-BSA 1x peptide-protein conjugate (bovine), sequence (P02769 25-607 limits assumed): as the sequence (P02769 25-607 limits assumed, chain 2 of 2) above
Assay [27] has as its target ERK1 (p42) active (phospho), human, Active Motif 31 152 (human) (UniProt P27361). The assay can be described thus: RPA, competition: +free pErk1/2 peptide 100 nM.
Assay [28] deals with ERK1 (p44) active (GST tagged), human, Invitrogen PV 3311 (human) (UniProt P27361). Nature of the assay: RPA, competition: +free pErk1/2 peptide 100 nM.
The target in assay [29] is ERK1 (p44) inactive (GST tagged), human, Invitrogen PV 3312 (human) (UniProt P27361). Nature of the assay: RPA, competition: +free pErk1/2 peptide 100 nM.
For assay [30], the target named is ERK1 (p44), human, Cell Signaling Technology 7416 (human) (UniProt P27361). Nature of the assay: RPA, competition: +free pErk1/2 peptide 100 nM.
In assay [31] the target is ERK2 (p42), human, Biosource PHO 0104 (human) (UniProt P28482). The assay can be described thus: RPA, competition: +free pErk1/2 peptide 100 nM.
The target of assay [32] is Erk1-BSA 2.7x peptide-protein conjugate (human; bovine). The assay can be described thus: RPA, competition: +free pErk1/2 peptide 100 nM.
The target in assay [33] is Histone H3 recombinant protein, human, Upstate 14-494 (human) (UniProt P68431). Nature of the assay: RPA, competition: +free pErk1/2 peptide 100 nM.
Assay [34] deals with Histone H3-BSA 2.7x peptide-protein conjugate (bovine). The assay can be described thus: RPA, competition: +free pErk1/2 peptide 100 nM.
Histone H3-BSA 2.7x peptide-protein conjugate (bovine), sequence (P02769 25-607 limits assumed): as the sequence (P02769 25-607 limits assumed, chain 2 of 2) above
Assay [35] concerns the target pErk1/2-BSA 2.7x peptide-protein conjugate (human; bovine). The assay can be described thus: RPA, competition: +free pErk1/2 peptide 100 nM.
In assay [36] the target is pRb recombinant protein, human, Active Motif 31 128 (human) (UniProt P06400). Nature of the assay: RPA, competition: +free pErk1/2 peptide 100 nM.
The target of assay [37] is pRb-BSA 1x peptide-protein conjugate (bovine). Nature of the assay: RPA, competition: +free pErk1/2 peptide 100 nM.

The source of these data is US20120220489A1.

In the case of Histone H3 antibody, Abcam ab1791, the maximum standard curve signal in assay [1], in assay [2], in [3], in [4], in [5] and in assay [6] was less than 0.01 RFI in each case. Also, the maximum standard curve signal was 0.3 RFI in assay [7]; 7.04 RFI in [8]; 4.28 RFI in assay [9]; less than 0.01 RFI in assay [10]; less than 0.01 RFI in [11]; less than 0.01 RFI in [12].
In the case of “p44/42 MAPK phospho (pERK1/2) Thr202/Tyr204 antibody, Cell Signaling Technology #9101”, the signal relative to pErk1 protein (Invitrogen) was determined as 12% in [13], 3% in assay [15] and 11% in assay [16]. Besides, the signal intensity relative to the pErk1/2-BSA peptide standard in assay [14] came to 25%. Besides, the maximum standard curve signal in assay [17] was 0.01 RFI; in [18], 0.05 RFI; in [19], 0.01 RFI; in [20], 0.01 RFI; in assay [21] it was 0.01 RFI; in [22] it was 0.01 RFI. Further, the maximum standard curve signal came to 0.1 RFI in assay [23]; 1.05 RFI in [24]; 0.01 RFI in assay [25]; 0.01 RFI in assay [26]; 0.01 RFI in assay [27]; 0.01 RFI in assay [28]. Further, the maximum standard curve signal is 0.01 RFI in [29]; less than 0.01 RFI in [30]; 0.01 RFI in assay [31]; 0.02 RFI in [32]; less than 0.01 RFI in assay [33]; 0.1 RFI in assay [34]. The maximum standard curve signal in assay [35] was 0.45 RFI; in assay [36], 0.01 RFI; in assay [37] it was 0.01 RFI.
